{"source": "patent US20150297694A1", "about": "“CANCER DIAGNOSTIC AND THERAPEUTIC METHOD TARGETING MOLECULES EXPRESSED IN CANCER STEM CELLS” (NIIGATA UNIVERSITY, priority 2012, published 2015)", "molecules": {"B1": {"name": "DEAD/H (Asp-Glu-Ala-Asp/His) box polypeptide 3, X-linked (protein, listed as Homo sapiens)", "chain": "MSHVAVENALGLDQQFAGLDLNSSDNQSGGSTASKGRYIPPHLRNREATKGFYDKDSSGWSSSKDKDAYSSFGSRSDSRGKSSFFSDRGSGSRGRFDDRGRSDYDGIGSRGDRSGFGKFERGGNSRWCDKSDEDDWSKPLPPSERLEQELFSGGNTGINFEKYDDIPVEATGNNCPPHIESFSDVEMGEIIMGNIELTRYTRPTPVQKHAIPIIKEKRDLMACAQTGSGKTAAFLLPILSQIYSDGPGEALRAMKENGRYGRRKQYPISLVLAPTRELAVQIYEEARKFSYRSRVRPCVVYGGADIGQQIRDLERGCHLLVATPGRLVDMMERGKIGLDFCKYLVLDEADRMLDMGFEPQIRRIVEQDTMPPKGVRHTMMFSATFPKEIQMLARDFLDEYIFLAVGRVGSTSENITQKVVWVEESDKRSFLLDLLNATGKDSLTLVFVETKKGADSLEDFLYHEGYACTSIHGDRSQRDREEALHQFRSGKSPILVATAVAARGLDISNVKHVINFDLPSDIEEYVHRIGRTGRVGNLGLATSFFNERNINITKDLLDLLVEAKQEVPSWLENMAYEHHYKGSSRGRSKSSRFSGGFGARDYRQSSGASSSSFSSSRASSSRSGGGGHGSSRGFGGGGYGGFYNSDGYGGNYNSQGVDWWGN"}}, "key": {"[1]": {"tested_on": "CD62Llow CD4-positive or CD8-positive T cells", "experiment": "Cytokine ELISA (IFN-γ, IL-17) of CD62Llow lymph node T cells stimulated with antigen-loaded dendritic cells", "format": "cell-based, mice", "excerpt": "T cells were stimulated with immobilized anti-CD3 monoclonal antibodies or antigen-pulsed BM-DCs in CM. Supernatants were harvested and assayed for IFN-γ, IL-4, and IL-17 content by a quantitative “sandwich” enzyme immunoassay using a murine IFN-γ, IL-4, and IL-17 ELISA kit (Genzyme), according to the manufacturer's protocol.\nThe inventors investigated whether T cells primed with synthesized DDX3X antigen could recognize CD133-positive melanoma cells.\nThe CD62L^low CD4-positive or CD8-positive T cells (1×10^5 cells) isolated from the lymph nodes were stimulated with 1×10^4 dendritic cells in 200 μl of complete medium (CM) for 48 hours in a 96-well plate. The dendritic cells used for stimulation were stimulated overnight with the same number of irradiated CD133-positive tumor cells or CD133-negative tumor cells (5,000 cGy), or synthesized DDX3X (5 μg/ml). The dendritic cells were purified with CD11c microbeads prior to co-culture."}, "[2]": {"tested_on": "CD3-positive T cells from peripheral blood", "experiment": "Detection of DDX3X-responding IFN-γ-producing T cells in peripheral blood (co-culture with DDX3X-pulsed dendritic cells, ELISA)", "format": "cell-based, human", "set-up": "key to DDX3X-specific T cell: “Yes” means detection of DDX3X-specific T cells in blood; “No” means no detection of DDX3X-specific T cells in blood", "details": "for DDX3X-specific T cell: DC pulsed with DDX3X 3.3 μg/ml, co-culture 24 hours, IFN-γ", "protocol": "Peripheral blood (15 ml) was collected after informed consent. A mononulclear cell fraction was collected by density-gradient centrifugation using Lymphoprep(trade name) (Cosmo Bio), and CD14^+ cells were isolated with CD14 microbeads and autoMACS. The CD14^+ cells were cultured with rhGM-CSF (1 ng/ml, a gift from Kirin) and rhIL-4 (10 ng/ml, R&D systems), and differentiated into dendritic cells by day 5. The dendritic cells were cultured overnight in medium containing synthesized DDX3X protein (3.3 μg/ml) or the same concentration of OVA, and CD11c-positive cells purified with CD11c microbeads and autoMACS were used as antigen-presenting cells. In order to remove naive T cells and regulatory T cells from the CD14 fraction cells, CD62L^high cells were removed by using anti-CD62L antibody (1H3)-conjugated Dynabeads. The CD62L^low CD14^− cells were cultured for 48 hours on a BD BioCoat(trade name) T cell activation plate (Becton Dickinson), and cultured for 4 days in medium containing 20 U/ml of rhIL-2 (a gift from Shionogi). FACS confirmed that 95% or more of the cells were CD3-positive T cells, and the CD3-positive T cells were used as responding cells. The responding cells (1×10^5) and antigen-presenting cells (1×10^4) were co-cultured for 24 hours in a 200-μl medium in a round-bottom 96-well plate, and the IFN-γ concentration was measured by ELISA using the supernatant collected after co-culture. Unpulsed dendritic cells, DDX3X-pulsed dendritic cells, and OVA-pulsed dendritic cells were used as the antigen-presenting cells. In Table 3, “Yes” means that IFN-γ production from T cells was confirmed with significant difference only in a co-culture with the DDX3X-pulsed dendritic cells. In the table, “% Treg” and “% Teff” represent the proportions of the regulatory T cells and the effector T cells, respectively, with respect to the total number of CD4^+ T cells as determined by the FACS analysis of the mononulclear cell fraction immediately after isolation from the peripheral blood. CD62L^high CD25^+CD4^+ T cells and CD62L^low CD4^+ T cells were used as regulatory T cells (Treg) and effector T cells (Teff), respectively, in the FACS analysis, as reported in Koyama K, Kagamu H, et al. Reciprocal CD4^+ T-cell balance of effector CD62L^low CD4^+ and CD62L^high CD25^+ CD4^+ regulatory T cells in small cell lung cancer reflects disease stage. Clin Cancer Res. 2008; 14: 6770-9. Detection of DDX3X-responding T cells was not possible in any of the healthy individuals (HV), small cell lung cancer patients with distal metastasis (SCLC-ED), and cured small cell lung cancer patients. However, the experiment found the presence of DDX3X-responding, specific IFN-γ-producing T cells in 5 of 12 small cell lung cancer (SCLC-LD) patients with no distal metastasis."}, "[3]": {"details": "T cells from lymph nodes draining DC pulsed with synthesized DDX3X, stimulated 48 hours with DC loaded with CD133-positive or CD133-negative tumor cells"}}}
{"molecule": "B1", "values": [{"measurement": "IFN-γ and IL-17 secretion by DDX3X-specific CD4-positive T cells", "setting": "[1]; [3]", "value": "secreted IFN-γ and IL-17 in a melanoma CSC-specific manner"}, {"measurement": "response of DDX3X-specific CD8-positive T cells", "setting": "[1]; [3]", "value": "responded to both CD133-negative and CD133-positive melanoma cells"}, {"measurement": "cytokine production by melanoma CSC-specific CD4-positive T cells", "setting": "[1]; T cells primed with vaccinated CD133-positive melanoma cells, stimulated with DC pulsed with synthesized DDX3X (5 μg/ml)", "value": "produced cytokines in a DDX3X-specific manner"}, {"measurement": "cytokine production upon DDX3X stimulation compared with stimulation with the melanoma CSC itself", "setting": "[1]; melanoma CSC-specific CD4-positive T cells", "value": "produced even more cytokines"}, {"measurement": "DDX3X-specific T cell", "setting": "[2]; Cured SCLC subjects", "value": "No"}, {"measurement": "DDX3X-specific T cell", "setting": "[2]; HV (healthy individuals)", "value": "No"}, {"measurement": "DDX3X-specific T cell", "setting": "[2]; SCLC-ED subjects", "value": "No"}, {"measurement": "DDX3X-specific T cell", "setting": "[2]; SCLC-LD subjects", "value": "Yes and No"}, {"measurement": "detection of DDX3X-responding T cells", "setting": "[2]; healthy individuals (HV), SCLC-ED and cured small cell lung cancer patients", "value": "not possible"}, {"measurement": "patients with DDX3X-responding, specific IFN-γ-producing T cells", "setting": "[2]; small cell lung cancer (SCLC-LD) patients with no distal metastasis", "value": "5 of 12"}]}
